{"source": "patent US20210040174A1", "key": {"[1]": {"target": "his-tagged C-terminal fragment from CA125 (UniProt Q8WXI7)", "assay": "SPR (BiaCore T200): fusion protein captured on Protein A chip, his-tagged C-terminal CA125 fragment as analyte; one MCB domain (MCB domain-1X, SEQ ID: 4)"}, "[2]": {"target": "his-tagged C-terminal fragment from CA125 (UniProt Q8WXI7)", "assay": "SPR (BiaCore T200): fusion protein captured on Protein A chip, his-tagged C-terminal CA125 fragment as analyte; two MCB domains (MCB domain-2X, SEQ ID: 2)"}}, "data": [{"substance": "MCB domain-1X fusion protein (single MCB domain of mesothelin linked to the N-terminus of the human IgG1 Fc heavy chain) (Fc fusion)", "values": [{"measurement": "Kd", "setting": "[1]", "result": 0.0652, "unit": "nM"}]}, {"substance": "MCB domain-2X fusion protein (two MCB domains of mesothelin linked via a single spacer unit to the N-terminus of the human IgG1 Fc heavy chain) (Fc fusion)", "values": [{"measurement": "Kd", "setting": "[2]", "result": 0.0149, "unit": "nM"}]}]}
